For one substance, Km, kcat and kcat/Km results are on record in publication PMC12593533, “Unravelling tandem repeat-mediated mutagenesis drive rapid diversification of KPC enzymes: emergence of blaKPC-263 and enhanced resistance to ceftazidime-avibactam” (eBioMedicine, 2025).

What all share (assay): purified protein
The subject of series [1] is C[C@@H](O)[C@H]1C(=O)N2C(C(=O)O)=C(SCCN=CN)C[C@H]12.
In series [2] the test system is C[C@@H](O)[C@H]1C(=O)N2C(C(=O)O)=C(S[C@@H]3CN[C@H](C(=O)N(C)C)C3)[C@H](C)[C@H]12.
Series [3] deals with CC(C)(O/N=C(\C(=O)N[C@@H]1C(=O)N2C(C(=O)[O-])=C(C[n+]3ccccc3)CS[C@H]12)c1csc(N)n1)C(=O)O.

For the substance KPC-2 (Klebsiella pneumoniae), in series [1], the Km was determined as 380 µM, the kcat turned out to be 199 s⁻¹ and the kcat/Km was 523000 M⁻¹ s⁻¹. Also, in series [2], the Michaelis-Menten constant (Km) is 420 µM, the turnover number (kcat) amounted to 112 s⁻¹ and the catalytic efficiency (kcat/Km) amounted to 268000 M⁻¹ s⁻¹. Also, in series [3], the Km is 580 µM, the catalytic constant (kcat) came to 42.9 s⁻¹ and the kcat/Km amounted to 74000 M⁻¹ s⁻¹.
